We go through one molecule from patent publication US20140303084A1 (Biogen, published 2014).

Ends that are not written are not given here.

The target in one test is human Factor IXa (human, UniProt P00740 47-191; P00740 227-461). Description: cell-based or functional assay.
The target of a further test is T1, human Factor VIIa (human, UniProt P08709 61-466).
T1 construct: Bought protein; also called hFVIIa; FVIIa
T1 sequence (looked up): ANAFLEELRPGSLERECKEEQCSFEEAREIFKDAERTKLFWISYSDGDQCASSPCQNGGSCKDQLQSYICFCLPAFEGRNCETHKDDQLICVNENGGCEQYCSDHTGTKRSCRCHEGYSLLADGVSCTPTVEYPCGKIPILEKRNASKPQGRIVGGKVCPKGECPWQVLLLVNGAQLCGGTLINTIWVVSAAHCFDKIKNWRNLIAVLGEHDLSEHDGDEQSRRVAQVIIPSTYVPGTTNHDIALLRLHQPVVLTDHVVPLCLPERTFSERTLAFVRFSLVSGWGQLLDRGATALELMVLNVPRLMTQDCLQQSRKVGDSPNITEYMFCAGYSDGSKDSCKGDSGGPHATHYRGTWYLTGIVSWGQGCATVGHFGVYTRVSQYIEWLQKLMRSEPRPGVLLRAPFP
The test is described as follows: BLI (ForteBio Octet 384), peptide on streptavidin probes, soluble hFVIIa. As for the experimental part:
Briefly, a layer of molecules attached to the tip of an optical fiber creates an interference pattern upon incident white light. The combination of the optical fiber and biocompatible surface creates the physical conditions needed for BLI, allowing the detection of changes in mass accumulation on the tip of the probe. This is measured by alterations in the spectral shift (nm). These changes are recorded as a binding profile, a continuous, real-time monitoring of the association and dissociation of interacting molecules.
Control SA probes were loaded with 4M guanidinium chloride in the absence of biotinylated peptide for reference subtraction. After loading, probes were incubated in HBS-P for 300 sec to establish a new baseline. […] This is described as the dissociation phase. The equilibrium KD was derived from the non-linear regression analysis of the subtracted data (Reaction probe minus Reference probe) using a 1:1 binding model with ForteBio software (Version 7.0).

On to RRAPGKLQCLASYCWLFWTGIA-NH2 (cysteine pairing not given here) [compound 25], for which, in the test with human Factor IXa, the “EC50 [µM], FXa generation assay with hFIXa” value is < 0.5 µM. The Kd in the test with human Factor VIIa came out at 250 nM.

Broadly, the Kd is the free concentration of one partner at which half of the binding sites on the other are occupied at equilibrium, for simple one-to-one binding.
